Measurements from the supplement of paper PMC9732359.
± gives the uncertainty stated by the source.

Test: protein stability index of a GFP-peptide fusion (yeast GPS) (PSI 1-4); higher = more stable; sorted into four equal gates, so the index is relative within each strain
In short: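 Plasmids in a pooled yeast library fused tiled 17-residue yeast protein peptides downstream of GFP and also expressed Cherry. Mid-log cultures grown without leucine were sorted into four equal gates by GFP/Cherry fluorescence ratio. Each gate's plasmids were PCR-amplified and Illumina-sequenced, and reads were matched to strains by barcodes. The protein stability index is derived by multiplying each gate's read frequency by its gate number and summing the results.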

Sequence | protein stability index (doa10∆) | protein stability index (pdr5∆) | protein stability index (san1∆) | protein stability index (ubr1∆)
LVYDVKGRFAVHRITDE [RPS4A] | 3.25 ± 0.078 | 3.08 ± 0.11 | 3.46 ± 0.07 | 3.29 ± 0.068
TRVRLPSGAKKVISSDA [RPL2A] | 3.25 ± 0.092 | 3.27 ± 0.084 | 3.26 ± 0.049 | 3.26 ± 0.072
SSNSQQSTPQPDDMVEI [ITC1] | 3.09 ± 0.064 | 2.74 ± 0.059 | 2.58 ± 0.054 | 2.87 ± 0.047
DAAAEKRNGDEVYTLVD [ARP7] | 3.28 ± 0.074 | 3.35 ± 0.063 | 3.42 ± 0.046 | 3.06 ± 0.056
NTSLISLFTYFREAIVA [PRP8] | 1.3 ± 0.049 | 1.49 ± 0.054 | 1.34 ± 0.1 | 1.44 ± 0.049
LTSVTNDICSVENYETS [SIR4] | 2.18 ± 0.052 | 2.35 ± 0.057 | 1.88 ± 0.062 | 1.84 ± 0.059
EESLTVLNCLRTMYFIL [YJR042W/NUP85] | 2.54 ± 0.11 | 1.83 ± 0.081 | 1.38 ± 0.098 | 1.57 ± 0.068
IMRILKSNGLAPEIPED [RPS13] | 2.14 ± 0.09 | 3.09 ± 0.15 | 1.9 ± 0.22 | 2.91 ± 0.057
MVCETDVPSEDDPTQLV [RPO21] | 3.03 ± 0.069 | 3.24 ± 0.12 | 3.37 ± 0.1 | 2.56 ± 0.11
FETETEVTFKNANIFSS [FAS1] | 3.15 ± 0.042 | 3.36 ± 0.055 | 3.35 ± 0.046 | 3.35 ± 0.037
FMDEIDSIGSTRVEGSG [RPT6] | 2.57 ± 0.076 | 2.56 ± 0.12 | 2.84 ± 0.069 | 2.46 ± 0.073
QLDSDANKLSKSHSTVS [ISW2] | 3.04 ± 0.063 | 2.85 ± 0.075 | 3 ± 0.13 | 3.06 ± 0.074
EKELKIFTDAGRVYRPL [RPB2] | 3.04 ± 0.067 | 3.44 ± 0.082 | 3.09 ± 0.063 | 3.34 ± 0.042
LSERKAEKAEIRKRRAS [RPS6A] | 3.44 ± 0.17 | 3.06 ± 0.23 | 3.24 ± 0.13 | 3.36 ± 0.14
GEKKVGSNGELFGGRHY [SWP82] | 3.13 ± 0.2 | 3.26 ± 0.13 | 3.73 ± 0.12 | 
LSMNIAPRLRLEDIFQQ [RET1] | 2.06 ± 0.05 | 1.92 ± 0.038 | 1.98 ± 0.057 | 2.01 ± 0.037
EIITSLSMRFQRETSGM [SRB8] |  | 2.28 ± 0.18 |  | 2.47 ± 0.17
VLEQLSGQTPVQSKARY [RPL11A] | 3.2 ± 0.24 | 2.98 ± 0.17 | 2.91 ± 0.077 | 3.15 ± 0.088
YGDGNGKGDNDNGLGPL [SWI3] | 3.46 ± 0.15 | 3.13 ± 0.3 | 3.31 ± 0.073 | 3 ± 0.1
RSSYMLELVNTPLTENI [YCG1] | 3.11 ± 0.096 | 3.18 ± 0.082 | 3.04 ± 0.073 | 2.91 ± 0.084
KLHMGTEDVRLAPELNQ [RPL31B] | 2.81 ± 0.061 | 3 ± 0.067 | 2.86 ± 0.049 | 3.05 ± 0.04
PLLTKRKDLRDKLICSI [DIS3] | 2.55 ± 0.088 | 2.62 ± 0.071 | 2.31 ± 0.1 | 3.06 ± 0.13
VGLKNYDPQRDKRFSGS [RPL1A] | 3.23 ± 0.082 | 3.48 ± 0.1 | 3 ± 0.096 | 3.25 ± 0.061
KNDSLEKTINDLQRTQT [YIL149C/MLP2] | 2.97 ± 0.074 | 3.02 ± 0.063 | 2.82 ± 0.059 | 2.89 ± 0.046
PHANPITHAHSLSNPNS [PGD1] | 2.87 ± 0.046 | 2.99 ± 0.045 | 2.77 ± 0.038 | 2.94 ± 0.03
LKKKVVDPFTRKEWFDI [RPS1B] | 2.97 ± 0.075 | 3.18 ± 0.071 | 3.18 ± 0.045 | 2.88 ± 0.049
ITYDKQEPSASQVKDSV [SRP68] | 3.14 ± 0.046 | 3.12 ± 0.062 | 2.98 ± 0.053 | 2.99 ± 0.071

Sequence | protein stability index (doa10∆) | protein stability index (pdr5∆) | protein stability index (san1∆) | protein stability index (ubr1∆)
VENWIIDDKGVLMERKD [ITC1] | 1.69 ± 0.099 | 2.98 ± 0.18 | 3.09 ± 0.15 | 2.7 ± 0.1
KRVTIQKKDIKLARRLR [HHT1] | 3.15 ± 0.14 | 2.87 ± 0.17 |  | 3.05 ± 0.088
IDQAHVSEITKLKFFPS [RPN14] | 3.12 ± 0.077 | 3.01 ± 0.071 | 3.12 ± 0.054 | 3.28 ± 0.053
HGAFMDIIWLQRDLGLY [RRP6] | 1.95 ± 0.047 | 1.49 ± 0.052 | 1.23 ± 0.069 | 1.46 ± 0.032
MFAYAKEHEPCIIFMDE [RPT4] | 2.34 ± 0.043 | 2.32 ± 0.05 | 2.24 ± 0.065 | 2.4 ± 0.043
KRDQYLKSASKETAPVI [RPL28] | 2.7 ± 0.12 | 2.69 ± 0.12 | 2.59 ± 0.065 | 2.43 ± 0.13
MMLGEHLMSWSKTGIIA [SIN4] | 1.6 ± 0.11 | 1.24 ± 0.11 | 1.06 ± 0.13 | 1.53 ± 0.27
MMVNNQTMQLIKNVQDL [SRB6] | 2.84 ± 0.25 | 2.3 ± 0.16 | 1.64 ± 0.13 | 3.03 ± 0.17
SFKLCTLLIAIRGSNRD [YML103C/NUP188] | 1.31 ± 0.048 | 1.78 ± 0.061 | 2.01 ± 0.077 | 2.41 ± 0.046
FPPGVIGIDEGSDEAYV [RPC40] | 3.59 ± 0.091 | 3.41 ± 0.085 | 3.29 ± 0.077 | 3.51 ± 0.056
ARENAPSIIFIDEVDSI [RPT3] | 2.75 ± 0.14 | 2.46 ± 0.11 | 2.74 ± 0.06 | 2.41 ± 0.066
IDNYITNSVRLFEVNPS [SRP21] | 2.61 ± 0.1 | 2.78 ± 0.088 | 2.54 ± 0.091 | 2.28 ± 0.12
TQPKAEATQDDDFDMLF [NUT1] | 2.73 ± 0.069 | 3.15 ± 0.051 | 2.99 ± 0.053 | 3.14 ± 0.043
GAKPAGSTGGLGASFGQ [YGL172W/NUP49] | 3.38 ± 0.14 | 3.41 ± 0.24 | 3.22 ± 0.11 | 3.54 ± 0.071
IVLLDDEGKEIPATIFD [TAF14] | 2.82 ± 0.06 | 3.07 ± 0.048 | 3.04 ± 0.035 | 3.06 ± 0.05
AELQSNLQVELLSEHDD [YGL100W/SEH1] | 2.61 ± 0.083 | 2.95 ± 0.065 | 2.62 ± 0.07 | 2.87 ± 0.061
MQQAQFQAQQAQQAQQA [SNF2] | 2.56 ± 0.043 | 2.86 ± 0.039 | 2.62 ± 0.032 | 2.53 ± 0.032
AEEVRNFALTTLIDLVK [ECM29] | 2.59 ± 0.086 | 1.9 ± 0.075 | 1.78 ± 0.073 | 2 ± 0.059
PEQGEEPMKQLNATKIS [YAR002W/NUP60] | 3.15 ± 0.12 | 2.2 ± 0.09 | 2.5 ± 0.14 | 2.48 ± 0.11
RGAWGKPHGLAARVDIG [RPL10] | 2.59 ± 0.064 | 1.99 ± 0.04 | 1.68 ± 0.08 | 2.35 ± 0.037
FVNGVATSFSRKKARTF [FAS2] | 1.85 ± 0.12 | 1.76 ± 0.11 | 1.22 ± 0.23 | 1.14 ± 0.074
SVALHRHSNALVDILPP [RPT3] | 1.63 ± 0.047 | 2.1 ± 0.056 | 2 ± 0.07 | 1.94 ± 0.041
LDPLEVHMLDFPNIAIR [PRP8] | 2.74 ± 0.059 | 2.79 ± 0.056 | 2.84 ± 0.051 | 2.88 ± 0.043
EFFVQVLTHESLHRQQQ [DLS1] | 2.99 ± 0.19 | 2.91 ± 0.14 | 2.81 ± 0.12 | 2.92 ± 0.13
ALIKFMEYHISNTDETK [FAS2] | 2.77 ± 0.1 | 2.5 ± 0.077 | 2.59 ± 0.12 | 2.3 ± 0.055
QKLDILVAKLKKVKSAS [SMC4] | 2.64 ± 0.076 | 2.25 ± 0.051 | 2.61 ± 0.071 | 2.73 ± 0.045
